# Assay results taken from the nanobody polyreactivity screen of Harvey et al. (2022).
# Test: yeast display, Sf9 membrane polyspecificity reagent, FACS + sequencing; frameworks hold sequencing errors
# How it was run: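 Using colony PCR, genes from sorted yeast display clones were amplified, then sequenced on MiSeq at 2 × 250 and filtered by CDR length. The clones had been stained with 10% biotinylated, detergent-solubilized Sf9 membrane reagent for 1 hour at 4 °C and sorted by FACS into low and high (top ~1%) gates on anti-HA and streptavidin fluorescence. Polyreactivity labels come from the gate of origin.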
row,Sequence,polyreactivity (PSR sort gate)
1,QVQLVESGGGLVQAGGSLRLSCAASGSIFNINAMGWYRQAPGKEREFVAAIDYSDSTYYADSVKGRFTISRDNAKNTVYLQMNSLKPEDTAVYYCAADVWKDGYWGDYWGQGTQVNVSS,high polyreactivity
2,QVQLVESGGGLVQAGGSLRLSCAASGSIFNKYAMGWYRQAPGKERELVAAISVSGTRTYYADSVKGRFTISRDNAKNTVYLQMNSLKPEDTAVYYCAAGGVGAYDYWGQGTQVTVSS,high polyreactivity
3,QVQLVESGGGLVQAGGSLRLSCAASGSIFNPNAMGWYRQAPGKERELLAAIDSGGTTDYADSVKGRFTISRDNAKNTVYLQMNSLKPEVTAVYYCNADRTVTSSSFTDYDYWGQGTQVTVSS,high polyreactivity
4,QVQLVESGGGLVQAGGSLRLSCAASGSIFNPYAMGWYRQAPGKERELVAAISSTGSTYYADSVKGRFTISRDNAKNTVYLQMNSLKPEDTAVYYCAADWYWYWFSTYDYWGQGTQVTVSS,low polyreactivity
5,QVQLVESGGGLVQAGGSLRLSCAASGSIFNQYAMGWYRQAPGKERELVAAISSGSTYYADSVKGRFIISRDNAETTVYLQMYSLKPEDTAVYYCNAYYVNYVSNYESWGQGTQVTVSS,high polyreactivity
6,QVQLVESGGGLVQAGGSLRLSCAASGSIFNRNAMGWYRQAPGKERELVAVISWTGDGTYYADSVKGRFTISRDNAKNTVYLQMNSLKPEDTAVYYCAARWYVQFYHRPVSKRYYWGQGTQVTVSS,high polyreactivity
7,QVQLVESGGGLVQAGGSLRLSCAASGSIFNRYAMGWYRQAPRKERELVAAITAGGSSTYYADSVKGRFTISRDNAKNTVYLQMNSLKPEDTAVYYCNAVWWHPKDYDYWGQGTQVTVSS,low polyreactivity
8,QVQLVESGGGLVQAGGSLRLSCAASGSIFNRYTMGWYRQAPGKETELVAAISRGDTTYYADSVKGRFTISRDNAKNTVYLEMNSLKPEDTAVYYWAKAYDTTLTYNYWGQVTQVTVSS,low polyreactivity
9,QVQLVESGGGLVQAGGSLRLSCAASGSIFNSNAMGWSRQAPGKERELVAVISWSDGSTRYADSVKGRFTISRDNAKNTVYLQMNSLKPEDTAVYYCNADLVYYYRQEVDYWGQGTQVTVSS,low polyreactivity
10,QVQLVESGGGLVQAGGSLRLSCAASGSIFNTYVMGWYRQAPGKERELVAAITYSAGGDTYYADSVKGRFTISRDNAKNTVYLQMNSLKPEDTAVYYCAAEYTYLDAYGSYDYWGQGTQVTVSS,low polyreactivity
11,QVQLVESGGGLVQAGGSLRLSCAASGSIFNWYAMGWYRRAPGKERELVAAISQSGTRTFYADSVKGRFTISRDNAKNTVYLQMNSLKPEDTAVYYCNTVKAGYDGYDRDYWGQGTQVTVSS,high polyreactivity
12,QVQLVESGGGLVQAGGSLRLSCAASGSIFNYNAMGWYRQAPGKERELVAGITTSGGSTYYADSVKGRFTISRDNAKNTVYLQMNSLKPEDTAVYYCAAYDYISSTYFLDDYWGQGTQVTVSS,low polyreactivity
13,QVQLVESGGGLVQAGGSLRLSCAASGSIFNYNMGWYRQAPGKERELVAAITSSGGSTYYADSVKGRFTISRDNAKNTVYLQMNSLKPEDTAVYYCAAPISRSAGWDSYDYWGQGTQVTVSS,low polyreactivity
14,QVQLVESGGGLVQAGGSLRLSCAASGSIFNYYAMGWYRQAAGKERELVAVITSGGSTYYAESVKGRFTISRDNAKYSVYLQMNSLKPEDTAVYFCAADDGTGEASVSSNLYDYWGQGTQVTVSS,low polyreactivity
15,QVQLVESGGGLVQAGGSLRLSCAASGSIFNYYTMGWYRQAPGKERELVAAISYRGGRTYYADSVKGRFTISRDNAKNTVYLQMNSLKPEDTAVYYCNAVTRIYEVDYWGQGTQVTVSS,high polyreactivity
16,QVQLVESGGGLVQAGGSLRLSCAASGSIFNYYTMGWYRQAPGKERELVARITSGDSTYYADSVKGRFTISRDNAKNTVYLQMNSLKPEDTAVYYCNAGLYRRRSTYYRQAYNYWGQGTQVTVSS,high polyreactivity
17,QVQLVESGGGLVQAGGSLRLSCAASGSIFPANAMGWYRQAPGKERELVAGISERGSSTYYAVSVKGRFTISRDNAKNTVYLQMNSLKPEDTAVYYCAADLVGRYWSSTHNWARGDYWGQVTQVTVSS,low polyreactivity
18,QVQLVESGGGLVQAGGSLRLSCAASGSIFPAYDMGWYRQAPGKERELVAAIDRGGSTYYADSVKGRFTISRDNAKNTVYLQMNSLKPEDTAVYYCATGYWNTSVYVRLEKRDYWGQGTQVTVSS,low polyreactivity
19,QVQLVESGGGLVQAGGSLRLSCAASGSIFPDNTMGWYRQAPGKERELVAAIDGRGGTTYYADSVKGRFTISRDNAKNTVYLQMNSLKPEDTAVYYCNAGVWTYWHIEMDYWGQGTQVTVSS,low polyreactivity
20,QVQLVESGGGLVQAGGSLRLSCAASGSIFPDNTMGWYRQSPGKDRELVGAIDGRGGTTYYADSVKGSFTISRDNAKNTVYLQMNSLKPEDTAVYYCARDIGHSASYDYWGQGTQVTVSS,low polyreactivity
21,QVQLVESGGGLVQAGGSLRLSCAASGSIFPDYALGWYRQPPGKERELVAAITWRDDSTYYADSVKGRFTSSRDKAKNTVYLQMNSLKPEETAVYYCNASAMDPLYAKDDYWGQGTQVTVSS,low polyreactivity
22,QVQLVESGGGLVQAGGSLRLSCAASGSIFPDYAMGWYRTAPGKERELVAAISWDGGRTYYADSVKGRFTISRDNAKNTVYLQMNSLKPEDTAVYYCYWYDYWGQGTQVTVSS,high polyreactivity

row,Sequence,polyreactivity (PSR sort gate)
1,QVQLVESGGGLVQAGGSLRLSCAASGSIFPDYGMGWYRQAPGKEREFVAAIDWSGTSTYYADSVKGRFTISRDNAKNTVYLQMNSLKPEDTAVYYCAARWDKSPFKLYDSWGQGTQVTVSS,low polyreactivity
2,QVQLVESGGGLVQAGGSLRLSCAASGSIFPEYAMGWYRQAPGKERELVAAITTSGGSTYYADSVKGRFTISRDNAKNTVYLQMNSLKPEDTAVYYCAVEYLVYLDYTYDYWGQGTQVTVSS,low polyreactivity
3,QVQLVESGGGLVQAGGSLRLSCAASGSIFPFNAMGWYRPAPGKERELVAAITSGGSTNYADSVKGRFTISRDNAKNTVYFQMNSLKPEDTAVYYCAADWRYWRWAFDYWGQGTQVTVSS,high polyreactivity
4,QVQLVESGGGLVQAGGSLRLSCAASGSIFPFNAMGWYRPAPGKERELVAAITSGGSTNYADSVKGRFTISRDNAKNTVYLQMNSLKPEDTADYYCAADWRYWRWAFDYWGQGTQVTVSS,high polyreactivity
5,QVQLVESGGGLVQAGGSLRLSCAASGSIFPFNAMGWYRQAPGKERELVAAISVNGGTTYYADSVKGRFTISRDNAKNTVYLQMNSLKPEDTAVYYCNARRAYLYYVSYRYGYWGQGTQVTVSS,low polyreactivity
6,QVQLVESGGGLVQAGGSLRLSCAASGSIFPFNAMGWYRQAPGKERELVAAITRSGGSTYYADSVKGRFTISRDNAKNTVYLQMNSLKPEDTAVYYCANDPEWPLPDFYYWGQGTQVTVSS,low polyreactivity
7,QVQLVESGGGLVQAGGSLRLSCAASGSIFPGNAMGWYRQAPGKERELVAAIDFSGGSTYYADSVKGRFTISRDNAKNTVYLQMNSLKPEDTAVYYCAASVYPYYGYGYWGQGTQVTVSS,low polyreactivity
8,QVQLVESGGGLVQAGGSLRLSCAASGSIFPGNAMGWYRQAPGKERELVASINWSGGSTYYADSVKGRFTISRDNANNTVYLQMNSLKPEDTAVYYCNADPGYYDYDYWGQGTQVTVSS,low polyreactivity
9,QVQLVESGGGLVQAGGSLRLSCAASGSIFPGYAMGWYRPAPGKERELVAAITDSGVSTYYADSVKGRFTISRDNAKNTVYLQMNSLKPEDTAVYYCARDNWQWYPSTWYDYWGQGTQVTVSS,high polyreactivity
10,QVQLVESGGGLVQAGGSLRLSCAASGSIFPGYPMGWYRQAPGKERELVAAISRSGGITYYADSVKGRFTISRDNAKNTVYLQMNSLKPEDTAVYYCAKTLPSNGHYDYWGQGTQVTVSS,low polyreactivity
11,QVQLVESGGGLVQAGGSLRLSCAASGSIFPGYTMGWYRQAPGKERELVAAISWSDGSTYYADSVKGRFTISRDNAKNTVYLQMNSLKPDDTAVYYCNRDYRGPYYYWGQGTQVTVSS,high polyreactivity
12,QVQLVESGGGLVQAGGSLRLSCAASGSIFPHNAMGWYRPAPGKERELVAAISSGGSTNYADSVKGRFTISRDNANNTVYLQLNSLKPEDTAVYYCAKSIDGWYWRRRRYDYWGQGTQVTVSS,low polyreactivity
13,QVQLVESGGGLVQAGGSLRLSCAASGSIFPHNAMGWYRQAPGKERELVAAITTIGGSTYYADSVKGRFTISRDNAKNTVYLQRNSLKPEDTAVYYCAADCATVLGFYTYDYWGQGTQVTVSS,low polyreactivity
14,QVQLVESGGGLVQAGGSLRLSCAASGSIFPHYAMGWSRQAPGKERELVSAISSGGRTYYADSVKGRFTISRDNAKNTVYLQMNSLKPEDTAVYYCAARRIARKGYGYWGQGTQVTVSS,high polyreactivity
15,QVQLVESGGGLVQAGGSLRLSCAASGSIFPHYAMGWYRQSPGKETELVAAISRSGTSTYYADSVKGRFTISRDNAKNTVYLQMNSLKPEDTAVYYCAALSNNGVRYYYWGQGTQVTVSS,high polyreactivity
16,QVQLVESGGGLVQAGGSLRLSCAASGSIFPKYAMGWYRQAPGKERELVAAISRGGGSTYYADSVKGRFTISRDNAKYTVYLQMNSLKPEDTAVYYCAAQYYSLQWEYYYWGQGTQVTVSS,high polyreactivity
17,QVQLVESGGGLVQAGGSLRLSCAASGSIFPLYAMGWYRQAPGKERELVADITVSGGSTYNADSVKGRFTISRDNAKNTVYLQMNSLKPEDTAVYYCNADDRSPFPDYWWYPYDYDYWGQGTQVTVSS,low polyreactivity
18,QVQLVESGGGLVQAGGSLRLSCAASGSIFPLYDMGWYRPAPGKERELVAGISSGGSTNYADSVKGRFTISRDNAKNTVYLQMNSLKPEDTAVYYCAATGSSRYGYWGQGTQVTVSS,low polyreactivity
19,QVQLVESGGGLVQAGGSLRLSCAASGSIFPNNDMGWYRQAPGKERELVAAITTRGTSTYYADSVKGRFTISRDNAKNTVYLQMNSLKPEDTAVYYCAVGRRGDSAGGVAYYYWGQGTQVTVSS,low polyreactivity
20,QVQLVESGGGLVQAGGSLRLSCAASGSIFPPNAMAWYRQAPGKEREFVAAITESGGSTRYADSVKGRFTISRDNAKNTVYLQMNSLKPEDTAVYYCAARSYRYSTHGTYRYYYWGQGTQVTVSS,high polyreactivity
21,QVQLVESGGGLVQAGGSLRLSCAASGSIFPPNAMGWYRQAPGKERELVAAISRRGGSTYYADSVKGRFTISRDNAKNTVYLQMNSLKPEDTAVYYCAARGGQMEYWGQGTQVTVSS,high polyreactivity
